Laboratory results taken from patent US11369662B2 (The Medical College of Wisconsin, Inc., priority 2014, dated 2022).

Assays:
CXCR4 [1] = target: T1, CXCR4 (Homo sapiens, UniProt P61073); assay: Confocal microscopy of CXCR4 Ser324/Ser325 phosphorylation in HeLa cells; type: cell-based; settings: HeLa cells with HA-CXCR4-YFP, 80 ng/ml, 15 min
T1 construct: purchased Millipore
Procedure: Connfocal microscopy. HeLa cells transiently transfected with HA-CXCR4-YFP were passaged onto poly-L-lysine coated coverslips and grown for 24 h. The next day, cells were washed once with warm DMEM containing 20 mM HEPES, pH 7.5, and incubated in the same medium for 3-4 h at 37° C. […] Cells were then fixed with PBS containing 3.7% paraformaldehyde, followed by permeabilization with 0.05% (w/v) saponin for 10 min, similar to a protocol we have described previously. Cells were then incubated with 1% goat serum in 0.05% saponin-PBS for 30 min at 37° C., followed by staining with […] monoclonal antibody that recognizes dually phosphorylated CXCR4 on serine residues 324 and 325 (clone 5E11) (1:50 dilution) for 1 h at 37° C. […] Samples were analyzed using an LSM 510 laser scanning confocal microscope (Carl Zeiss, Thornwood, N.Y.) equipped with a Plan-Apo 63×/1.4 oil lens objective. […] Acquired images were analyzed using ImageJ, version 1.41o software (National Institutes of Health, Bethesda, Md.) and Adobe Photoshop (CS4).
Confocal microscopy. […] Samples were analyzed using an LSM 510 laser scanning confocal microscope (Carl Zeiss, Thornwood, N.Y.) equipped with a Plan-Apo 63×/1.4 oil lens objective. […] Acquired images were analyzed using ImageJ, version 1.410 software (National Institutes of Health, Bethesda, Md.) and Adobe Photoshop (CS4).

KG1a cells = assay: Apoptosis assays in KG1a cells expressing CXCR4-YFP; type: cell-based, human; settings: for cleavage of PARP: 100 ng/ml
Procedure: Apoptosis assays. KG1a (human acute myelogenous leukemia) cells were assayed for CXCL12-dependent apoptosis as previously described. Briefly, CXCR4 expression on KG1a cells was achieved via transient transfection with a plasmid encoding a CXCR4-YFP fluorescent fusion protein. […] Apoptosis was assayed by staining cells with APC-conjugated annexin V to detect cell-surface phosphatidyl serine (BD Biosciences) or Alexaflour-647-conjugated antibody to detect cleaved PARP (BD Biosciences), and the percentage of YFP+ cells undergoing apoptosis was determined by flow cytometry.

CXCR4 [2] = target: T1, CXCR4; assay: CXCR4 degradation assay in HeLa cells; type: cell-based; settings: 80 ng/ml, 3 h, compared to vehicle
Procedure: (§1) CXCR4 degradation assay. HeLa cells grown on 6-cm dishes were washed once and incubated with DMEM containing 10% FBS and 50 μg/ml cyclohexamide for 15 min at 37° C. […] Cells were washed once and collected in 300 μl 2× sample buffer. Receptor levels were determined by SDS-PAGE followed by immunoblotting using an anti-CXCR4 antibody. Blots were stripped and reprobed for actin to assess loading. Receptor levels normalized to actin levels were determined by densitometric analysis.
as §1, with “2×sample” for “2× sample”

CXCR4 [3] = target: T1, CXCR4; assay: CXCR4 ubiquitination assay in HEK293 cells stably expressing HA-CXCR4; type: cell-based; settings: HEK293 HA-CXCR4 with FLAG-ubiquitin, 80 ng/ml, 30 min
Procedure: (§2) CXCR4 ubiquitination assays. HEK293 cells stably expressing HA-CXCR4 grown on 10-cm dishes were transfected with 3 μg FLAG-ubiquitin. The next day, cells were passaged onto 6-cm dishes and allowed to grow for an additional 24 h. […] Cells were then washed once on ice with cold PBS, and collected in 1 ml lysis buffer [50 mM Tris-Cl, pH 7.4, 150 mM NaCl, 5 mM EDTA, 0.5% (w/v) sodium deoxycholate, 1% (v/v) NP-40, 0.1% (w/v) SDS, 20 mM N-ethyCXCL121aleimide (NEM), and 10 μg/ml each of leupeptin, aprotinin, and pepstatin A]. Samples were transferred into microcentrifuge tubes and placed at 4° C. for 30 min, followed by sonification and centrifugation to pellet cellular debris. Clarified cell lysates were incubated with an anti-HA polyclonal and isotype control antibodies and the immunoprecipitates were analyzed by SDS-PAGE followed by immunoblotting using an anti-FLAG antibody conjugated to HRP.
as §2, with “Tris-CI,” for “Tris-Cl,”

T1 sequence (P61073 whole entry): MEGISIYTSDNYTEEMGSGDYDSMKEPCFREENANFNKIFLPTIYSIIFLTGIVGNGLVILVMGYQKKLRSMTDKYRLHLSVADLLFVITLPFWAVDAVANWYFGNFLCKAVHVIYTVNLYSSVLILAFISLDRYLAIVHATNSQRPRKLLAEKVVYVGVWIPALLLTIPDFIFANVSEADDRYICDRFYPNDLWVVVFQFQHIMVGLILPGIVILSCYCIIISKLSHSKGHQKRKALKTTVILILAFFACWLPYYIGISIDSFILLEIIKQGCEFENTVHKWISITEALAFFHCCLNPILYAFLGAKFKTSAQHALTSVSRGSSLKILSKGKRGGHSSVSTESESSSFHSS

Row | staining for CXCR4 phosphorylated on Ser324 and Ser325 (CXCR4 [1]) | EC50 (KG1a cells; 16-18 h, read-out: EC50 of increase in annexin V) | CXCR4 degradation (CXCR4 [2]) | CXCR4 ubiquitination (CXCR4 [3]) | CXCR4 ubiquitination (CXCR4 [3]; listed as CXCL12) | Substance | cleavage of PARP (KG1a cells) | increase in annexin V (KG1a cells; 16-18 h)
1 | strong staining | 1.75 ± 0.6 nM | approximately 60% | prompted ubiquitin | promoted ubiquitination of CXCR4 | CXCL12WT: wild type CXCL12 (stromal cell-derived factor-1/SDF-1), SEQ ID NO:1 | significantly greater than CXCL122 | –
2 | weak staining similar to vehicle | – | ~15% | failed to promote CXCR4 ubiquitination | – | CXCL122: constitutively dimeric variant of CXCL12 containing L36C/A65C mutations | enhanced the cleavage of PARP | small but significant increase
